The text below walks through data of US20250235501A1, “Methods and Compositions for Treating or Preventing Neurological Injury or Neurological Disorders” (University of Connecticut, priority 2024, published 2025).

In this assay the target is T1, NMDARs (Mus musculus, UniProt P35436+Q01097).
T1 construct: from tissue; host or cells: mouse brain, membrane protein extract 24 h after MCAO or sham
Put plainly: Surface expression of NMDARs in brains of MCAO mice (WB). It counts as in vivo. The note with it: 100 nmol/kg ip 15 mins before MCAO; 24 hrs after MCAO. The method, then:
FIGS. 7D and 7E show the effects of TAT-EE3 on surface expression of NMDARs in WT and nM2KO mice 24 hrs after MCAO or sham procedure. TAT-SC and TAT-EE3 were ip administrated (100 nmol/kg) 15 mins before MCAO or sham procedure. FIG. 7D show the WB of surface expression of NMDARs from two representative samples/group. Pan-cadherin was used as loading control. FIG. 7E show the quantification of surface expression of NMDARs normalized to Pan-cadherin (ns, p>0.05; ***, p<0.001; ANOVA, Bonferroni's test; mean±SEM; n=4 mice/group).
Eight-to nine-week-old male mice (˜25 g) were subjected to right middle cerebral artery occlusion (MCAO) for 120 min followed by 24 hours of reperfusion. The genotype information was blinded to the surgeon who conduct the surgeries. […] Mouse body temperature was monitored by a rectal temperature probe and maintained at ˜ 37° C. with an automatic temperature-regulating heating pad connected to animal temperature controller (TCA T-2DF, Physitemp). Cerebral blood flow was monitored after occlusion as well as after reperfusion. […] Successful occlusion was confirmed by 85% reduction of cerebral blood flow monitored by Laser Doppler Flowmetry (LDF) with laser Doppler blood FlowMeter (Moor-VMS-LDF1, Moor Instrument, Dever, UK). […]

T1 sequence (P35436 20-1464 limits assumed, other chains not shown): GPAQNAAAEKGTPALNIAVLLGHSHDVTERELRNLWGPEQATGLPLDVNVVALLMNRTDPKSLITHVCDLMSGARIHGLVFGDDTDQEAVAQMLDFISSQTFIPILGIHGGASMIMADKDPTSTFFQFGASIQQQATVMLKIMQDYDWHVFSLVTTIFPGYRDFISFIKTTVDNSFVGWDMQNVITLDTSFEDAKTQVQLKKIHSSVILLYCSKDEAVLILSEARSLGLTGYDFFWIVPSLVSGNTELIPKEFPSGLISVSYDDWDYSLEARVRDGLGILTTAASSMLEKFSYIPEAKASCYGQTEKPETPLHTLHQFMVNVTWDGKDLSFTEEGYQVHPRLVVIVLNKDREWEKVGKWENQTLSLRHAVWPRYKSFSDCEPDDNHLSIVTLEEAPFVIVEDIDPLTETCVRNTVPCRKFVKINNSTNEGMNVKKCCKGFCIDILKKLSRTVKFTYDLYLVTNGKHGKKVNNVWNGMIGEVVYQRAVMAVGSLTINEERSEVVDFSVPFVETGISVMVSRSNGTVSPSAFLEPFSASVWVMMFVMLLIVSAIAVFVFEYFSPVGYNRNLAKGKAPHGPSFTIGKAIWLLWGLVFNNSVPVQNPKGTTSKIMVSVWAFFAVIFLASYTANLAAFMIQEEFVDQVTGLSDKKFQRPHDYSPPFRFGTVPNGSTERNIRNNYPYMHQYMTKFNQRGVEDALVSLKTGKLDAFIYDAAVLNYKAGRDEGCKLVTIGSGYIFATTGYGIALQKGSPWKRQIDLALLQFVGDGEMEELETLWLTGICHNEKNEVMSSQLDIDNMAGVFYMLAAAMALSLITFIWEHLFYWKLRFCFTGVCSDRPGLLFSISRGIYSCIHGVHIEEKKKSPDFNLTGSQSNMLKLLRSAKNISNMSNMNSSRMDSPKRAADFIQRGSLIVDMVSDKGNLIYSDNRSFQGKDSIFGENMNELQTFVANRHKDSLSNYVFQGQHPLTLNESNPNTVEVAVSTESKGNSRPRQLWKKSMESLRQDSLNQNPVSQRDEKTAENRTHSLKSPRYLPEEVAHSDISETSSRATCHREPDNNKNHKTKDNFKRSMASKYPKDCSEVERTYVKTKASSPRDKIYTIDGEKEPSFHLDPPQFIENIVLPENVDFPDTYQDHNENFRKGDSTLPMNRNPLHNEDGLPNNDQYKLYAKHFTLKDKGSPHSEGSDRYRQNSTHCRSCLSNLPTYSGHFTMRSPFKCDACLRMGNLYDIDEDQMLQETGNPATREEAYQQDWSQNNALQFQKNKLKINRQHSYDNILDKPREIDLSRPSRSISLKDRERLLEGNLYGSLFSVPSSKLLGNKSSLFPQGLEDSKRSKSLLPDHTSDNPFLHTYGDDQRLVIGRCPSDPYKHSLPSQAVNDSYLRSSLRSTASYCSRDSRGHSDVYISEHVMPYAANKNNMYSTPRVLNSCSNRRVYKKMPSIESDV
T1 sequence (Q01097 27-1482, other chains not shown): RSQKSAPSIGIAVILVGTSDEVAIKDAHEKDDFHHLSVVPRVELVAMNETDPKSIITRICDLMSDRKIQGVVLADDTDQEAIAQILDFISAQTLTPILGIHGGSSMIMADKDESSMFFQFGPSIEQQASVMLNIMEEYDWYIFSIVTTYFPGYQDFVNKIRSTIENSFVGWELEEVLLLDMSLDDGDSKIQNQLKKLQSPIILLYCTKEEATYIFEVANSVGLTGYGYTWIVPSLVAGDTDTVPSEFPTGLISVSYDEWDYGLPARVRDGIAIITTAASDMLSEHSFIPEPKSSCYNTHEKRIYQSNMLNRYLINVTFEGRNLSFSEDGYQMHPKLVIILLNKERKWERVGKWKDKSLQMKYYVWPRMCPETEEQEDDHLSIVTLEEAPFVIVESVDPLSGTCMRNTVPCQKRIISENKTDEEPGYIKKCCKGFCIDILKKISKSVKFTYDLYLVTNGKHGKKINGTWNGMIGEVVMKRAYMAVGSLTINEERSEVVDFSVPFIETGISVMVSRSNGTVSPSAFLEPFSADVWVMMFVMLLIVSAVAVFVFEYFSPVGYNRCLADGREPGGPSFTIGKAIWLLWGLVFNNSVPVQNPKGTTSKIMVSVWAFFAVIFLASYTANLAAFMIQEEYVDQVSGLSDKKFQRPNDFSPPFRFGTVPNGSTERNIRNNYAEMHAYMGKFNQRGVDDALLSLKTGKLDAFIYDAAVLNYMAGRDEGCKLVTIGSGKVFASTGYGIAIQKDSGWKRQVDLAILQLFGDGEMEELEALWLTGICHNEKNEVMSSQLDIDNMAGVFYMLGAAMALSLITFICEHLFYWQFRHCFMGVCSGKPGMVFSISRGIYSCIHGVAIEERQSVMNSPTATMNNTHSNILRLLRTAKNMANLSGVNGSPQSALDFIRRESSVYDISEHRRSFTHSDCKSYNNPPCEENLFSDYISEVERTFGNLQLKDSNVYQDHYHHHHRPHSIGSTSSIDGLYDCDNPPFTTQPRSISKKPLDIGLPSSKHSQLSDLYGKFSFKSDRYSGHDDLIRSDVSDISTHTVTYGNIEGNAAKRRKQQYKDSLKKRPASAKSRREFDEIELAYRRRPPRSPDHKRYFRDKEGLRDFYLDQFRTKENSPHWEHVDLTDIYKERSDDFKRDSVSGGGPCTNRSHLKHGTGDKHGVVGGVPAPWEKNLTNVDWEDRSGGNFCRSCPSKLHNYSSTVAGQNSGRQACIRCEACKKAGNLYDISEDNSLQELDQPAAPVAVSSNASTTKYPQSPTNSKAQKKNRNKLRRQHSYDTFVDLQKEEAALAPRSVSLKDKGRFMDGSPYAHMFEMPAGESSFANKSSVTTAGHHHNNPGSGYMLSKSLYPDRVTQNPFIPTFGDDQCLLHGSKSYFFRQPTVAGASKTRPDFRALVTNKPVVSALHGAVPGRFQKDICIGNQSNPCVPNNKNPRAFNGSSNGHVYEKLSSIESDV

For “TAT-EE3: membrane permeable disrupting peptide, sequence YGRKKRRQRRREEDTDSSEEMLALAEE (SEQ ID NO: 4)”, the “enhanced surface expression of NMDARs in MCAO mice” value is “abolished”.
